Source: the RNAGym collection of RNA variant scans (doi:10.1073/pnas.2313332121)
Fewer inactive variants are shown than the library holds.

B1: TPR 5TU (parent)
chain: GGAUCUUCUCGAUCUAACAAAAAAGACAAAUCUGCCACAAAGCUUGAGAGCAUCUUCGGAUGCAGAGGCGGCAGCCUUCGGUGGCGCGAUAGCGCCAACGUUCUCAACUAUGACACGCAAAACGCGUGCUCCGUUGAAUGGAGUUUAUCAUG

Variants of: B1
Assay: polymerase ribozyme fitness, log enrichment relative to wild type (log ratio); higher = more active; in vitro selection for triplet polymerase activity
How it was run: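 Fitness is a logarithmic measure of how a genotype enriched relative to the wild type, with replicate averages weighted by inverse variance. The logarithm uses base 2, and enrichment came from Illumina sequencing of input and output libraries. Those libraries were PCR-built, transcribed mutants of each subunit of a heterodimeric triplet polymerase ribozyme, passed through one triplicate in vitro selection round that included frozen incubation at −7 °C, gel excision of extended constructs and streptavidin-bead capture. Genotypes were kept only if they had ≥10 input reads and ≥1 read per output.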

Variant | polymerase ribozyme fitness (log ratio)
GGAUCUUCUCGAUCUAACAAAAAAGACAAAUCUGCCACAAAGCUUGAGAGCCUCUUUGGAUGCAGAGGCGGCAGCCUUCGGUGGUGCGAUAGCGCCAACGUUCUCAACUAUGACACGCAAAACGCGUGCUCCGUAGAAUGGAGUUUAUCAUG | -1.62
GGAGCUUCACGAUCUAACAAAAAAGACAAAUCUGACACAAAGCUUGACAGCAUCUUCGGAUGCAGAGGCGGCAGCCUUCGGUGGCGCGAUAGCGCCAACGUUCUCAACUAUGACACGCAAAACGCGUGCUCCGGUGAAUGGAGUUUAUCAUG | ≤ -4.2
GGAUCUUCUCGAUCUAACAAAAAAGACAAAUCUGCCACAAAGCUUGAGAGCAUCUUCGGAUGCAGAGGCGGCAGCCUUCGGUGACGCGAUAGCGGCAACGUUCUCAACUAUGACACGCAAAACGCGUGCUCCGUUGAAUGGAGUUUAUCAUG | -0.784
GGAUCGUCUCGAUCUAACAAAAAAGACAAAUCUGCCACAAAGCUUGAGAGCAUCUUCGGAUGCAGAGGCGGCAGCCUUCGGUGGCGCGAUAGCGCCAACGUUCUCAACUAUGACACGCAAAACGCGUGCUCCGUUGAAUGGAGUUUAUCAUG | 0.0167
GGAUCUUCUCGUUCCAACAAAAAAGACAAAUCUGCCACAAAGCUUGAGCGCAUCUUCGGAUGCAGAGGCGGCAGCCUUCGGUGGCGCCAUAGCGCCAACGUUCUCAACUAUGACACGCAAAAUGCGUGCUCCGUUGAAUGGACUUUAUCAUG | ≤ -4.2
GGAUCUUCUCGAUCUAACAAAAAGGACAAAACUGCCACAAAGCUUGAGAGCAUCUUCGGAUGCAGAGGCGGCAGCCUUCGGCGGCGCGAUAGCGCCAACGGUCUCAACUAUGACACGCAAAACGCGUGCUCCGUUGAAUGGAGUUUAUCAUG | ≤ -4.2
GGAUCUUCUCGAUCUAACCAAAAAGACAAAUCUGCCACAAAGCUUGAGAGCAACUUCAGAUGCAGAGGCGGCAGCCUUCGGUGGCGCGAUAGCGCCAACGUUCUCAACUAUGACACGCAAAACGCGUGCUCCGUUGAAUGGAGUUUAUCAUG | 0.679
GGAUCUUCUCGAUCUAUCAAAAAAGCCAAAUCUGCCACAAAGCUUGAGAGCAUCUUCGGAUACAGAGGCGGCAGCCUUCGGUGGCUCGAUAGCGCCAAUGUUCUCAACUAUGACACGCAAAACGCGUGCUCCGCUGUAUAGAGUUUUUCAUG | ≤ -4.2
GGAUCUUCUCGAUCUAACAAAAAAGACCAAUCUGCCACAAAGCUUGAGAGCAUCUUCGGAUGCAGAGGCGGCAGCCUUCGGUGGAGCGAUAGCGCCAACGUUCUCAACUAUGACACGCAAAACGCGUGCUCCGUUGAAUGGAGUUUAUCAUG | ≤ -4.2
GGAUCUUCUCGAUCUAACAAAAAAGACAAAUCUGCCACAAAGCUUGAGAGCAUCUUCGGAUGCAGAGGCGGCAGCCUUCGGUGGCGCGAUAGCGCCAACGUUCUCAACUAUGACACGCAAAGCACGAGCUCCGUUGAAUGGAGUUUAUCAUG | -3.53
GGAUCUUCUCGAUCUAACAAAAAAGACAAAUCUGCCACAAAGCUUGAGAGCAUCUUUGGAUGCAGAGGCGGCAGCCUUCGGUGGCGCGAUUGCGCCAACGUGCUCAACUAUGACACGCAAAACGCGUGCUCCGUUGAAUGGAGUUUAUCAUU | -3.9
GGAUCUUCUCGAUCUAACAAAAAAGACAAAUCUGCCACAAAGCAUGAGAGCAACUUCGGAUGCAGAGGCGGCAGCCUUGGGUGGGGCGAUAGCGCCAACGUUCUCAACUAUGACACGCGAAACGCGUGCUCCGUGGAAUGGAGUUUAUCAUG | ≤ -4.2
GGAUCUCCUCGAUCUUACAAAAAAGACAAAUCUGCCACAAAGCUUGAGGGCAUCUUCGGAUGCAGAGGCGGCAGCCUUCGGUGGCGCGAUACCGCCAACGUUCUCAACUAUGACACGCAAAACGCGUGCUCCGUUGAAUGGAGUUUAUCAUG | ≤ -4.2
GGAUCUUCUCGAUCUAACAAAAAAGACACAUCUGCCACAAAGCUUGAGAGCAUCUUCAGAUGCAGAGGCGGCAGCCUUCGGUAGCGCGAUAGCGCCAACGUUCUCAACUAUGACACGUAAAACGCGUGCUCCGUUGAAUGGAGUUUAUCAUG | ≤ -4.2
GGAUCUUCUCAAUGUAACUAAAAAGAAAAACCUGCCACAAAGCUUGAGAGCAUCUUCGGAUGCAGAGGCGGCAGCCUUCGGUGGCGCGAUAGCGCCAACGUUCUCAACUAUGACACGGAAAACGCGUGCUCCGUUGAAUGGAGUUUAUCAUG | ≤ -4.2
GGAGCGUCUCGAUCUAACAAAAAAGACAAAUCUGCCACAAAGCUUGAGAGCAUCUUCGGAUGCAGAGGCGGCAGCCUUCGGUGGUGCGAUAGCGCCAACGUUCUCAACUAUGACACGCAAAACGCGUGCUCCGUUGAAUGAAGUUUAUCAUG | -3.39
GGAUAUUCUCGAUCUAACAAAAAAGACAAAUCUGCCACAAAGCUUGAGAGCAUCUUCGGAUGCAGAGGCGGCAGCCAUCGGUGGCGAGAUAGCGCCAACGUUCUCAACUAUGACACGCAAAACGCGUGCUCCGUUGAAUGGAGUUUAUCAUG | ≤ -4.2
GGAUCUUCUCGAUCUAACAAAAAAGACAAAUCUGGCACAAAGCUUGAGAGCAUCUUCGGAUGCAGAGGCGGCAGCCUUCGGUGGCACGAUAGCGCCAACGUUCUCAACUAUGACACGCACAACGUGUGCUCCGUUGAAUGGACUUUAUCAUG | ≤ -4.2
GGAUCUUCUCGAUCUAACAAAAAAGACAAAUCUGCCACAAAGCUUGAGAGCAUCUUCGGAUGCAGAGGCGGCAGCCUUCAGUGGCGCGGUAGCGCCAACGUUCUCAACUAUGACACUCAAAACGCGUGCUCCGUUGAAUGGAGUUUAUCAUG | -1.48
